From a protein production outcome set (Wang et al. 2014)

Test: label from the status in PepcDB records

Sequence | protein production
MNMTAGRRAALTREQASSETMTMESSAYGEAVRAVRTGEISADEAANQLIDRMTEGEVLGLLDGDSSRWVLPFIPALLDRRPFVAGAVSRLGIPGIRFSDGGRGVVIGASTAFPVTIARAATWDPSLEERVGIAIGLETRARGANYSASVCVNLLRHPAWGRAQECYGEDPVLTGRMGSALTRGVRLHVMACVKHFALNSMENERFEVDVAVDEHALHEVYLPHFKAVVDAGADSVMSSYNRVRGEYMDVNRALLTDVLRREWGFSGFVTSDWVFGTHDAVASLEAGMDVEMPLRLLRARELPAALRNGVLARATVLQSARRVLRTCVEHSANRELAAPTRAVIASPAHRALAHQVAAESIVMLKNETVGAAPLLPLAPTIQHLAVIGRLAAQGNLGDHGSSRVRPPSTVSPLQGLREALPGVLISTTTGRDERRAAAMAAAAEMAIVVVGLDQHDEGESVVTGGVDVGVIGRTFGSGPLRQVLIGLAHLASRFVRGGDRSSLNLRPSDERLIQAVVAANPRTVVVLVSGSAILTEAWRDRVPALLLAWYGGMEGGRALASVLTGSEEPGGRLPFVLPTDAAHLPFFDSAAKSVVYDAQWGQRRLDGEGHRPAYPFGFGLSYTTLEHRLIDHTLDSSGGNANVHVTNKGHRKGSTVVQVYAADVSLRRPVAQLLGFRKVTLQPGAETTVRVVLDAGPTLQRDSTTRRWSPRSGVWALQASQHSPDSWENAVRLRRTEGLIDQEGTSDVKPA | failed
MNNDISIAALIVTYNPDKRLIESLTKLEKLVDFVVIVDNNSNKSPVLDYISNNIFNDRYLIQLEDNLGIAYALNTGIKYILEKGHYDYILTLDQDTVPLIDDIKELIKRANSIYSNIGIIALISKMDPKIPEFTDVKFPMTSGNIVKSEIFKYIKYREEFFIDSVDFDFDYNVRMHGYRIIQYNYRAIDHNVGITKNGFPYESSERLYYIIRNSTVLFGENKITFRMYIFQAFYWITMGLIHWEILKTAKSSVKGFKDGVNKKLGKNNDI | failed
MNNENPLVSILIPVYNREKYIGEAIESAINQTYKNIEVIIVDNCSTDNTWKILQDYQCKDKRIHIFQNEKNLGPVYNWIECFKRAKGVYSKILWSDDWMSLDFVENALSAFNEDISFVISAQQIITNDKEILSNVAYLKDRYSQREYLENALLYNKYNFPLSPGCAIFRTKDVLNNFIVDIPNSDSLDSKKNGAGNDLYLFLKIALHYPYIGVVANSVSYFRAHKESFSVASDLNLYYEWAKVDFINSELRDSYFISAKKMLLFKFSVKNKHFRNICKSLSYNKYILQAVFRLLLIRILEHHHHHH | failed
MNNFKLIVRKWYIPVLIISLITLVASAYALYWATIPETKETQISIRHYSALAYFSGGAEVKKDNPIWANGSFVTLPVYSYSLTPEYSGEFYFTTAPRGDITIETEAKIVYFYEVSDAPVWEKVYYAASNTSRGEIKTNFKINVTDLKSKINEAQNSFGVYLGKTGARIDVSVHYYGKITGKDVDETLSFKIPIDVQSTYYSFSTLNETRDFEMPSTRVVEVQKPLHMKVIPAALCTVSIIFAGLSVVYRTKYSDVSSLEREIERVSWEKKLKEVSFARMPETNLEMVEVERFEDISKAAEETFEHLFYDREKGVFFFIHGGVLYYCREK | failed
MNNFVSELQSYFASKYPFLSANIPRQQQLLGDSWSQEFDGELIKHFGTIEELRTAADGYAKFAMDSLLLTAKFQKTKDYDNKTYAECASEVYQSESYMHSLYLPGILLSHYLWKHHYAMYQFYKSIVVPVLPKSGLFIDVGVGTGFYSRNLLRDSQMTGIGCDMSPHSLSYTRSTLSKFGTVDKYSFCLCDYYHFNQYFQSTADFILSIEVLEHLEDPMKMLESLYKSLKPGGLGLISAAVNAPNADHIYLYRSCEDVRHQLIKAGFEIRHDTCDEAYEARTIGEVVPVNYGALVCKPS | failed
MNNGQPLKHRGVTVEDLLRLRSVRDPHYASDGTHGVFVQKSIDEEKQYCSHLYIWTEDGAVRQWTFGRWRDTRPRFSPDSKTIAFLSDRSGHTQLWLLPADGGEARQLTFFKNGVRDYVWAPDGTFLIALTTLGDNETIDDREEPKKKETKPADLKPRVVERLYYKSDASGFLDGKQAVLVCIDATSGKTEALTSREEEISSFAISPNGRTLAFMANRNEDPDTTFTRDIVLLDLESKAETNLTKGSGTFTSLAWSPDGTKLAAIGHDLAFLGATIHQLYVFEPERGTKRVLTADWDVHLGDAMVGDTHADAKGPGPIWKRDGTGLYVTASERGRVNVYFVPLDGPIVPIIEGDFHVYGLAIHPNEQQAVAAISEPTMIGDLYTISLESGTKTRLTRVNEALENEVTFADAEPFTYQSTDGWDIQGWIMKPPRLGDGEKAPLVVEIHGGPHTMYGFTFFHEFQLLASSGYVVLFTNPRGSHGYGQSFVNAVRGDYGGMDYEDIMAGVDAAIKQFAFIDETRLGVTGGSYGGFMTNWIVGHTNRFRAAVTQRSISNWLSFAGVSDIGYFFTKWEVGCDVWEDAERLWHHSPLKYVKNVRTPLLILHSEHDYRCPIEQAEQLFIALKQLGQETKLVRFPDANHDLSRTGNPALRLERLRQIVGWFDHYLKGPLD | failed
MNNLKKYTLVAVFVFLTAVCFQHPGITSAATTITIDPDATYQTIEGWGASICWWGNQIGRWSPDNRNRLIEKIVSPTDGLGYNIFRYNIGGGDNPGHNHMRDYADIQGYQNADRSWNWNADAAQRAVLTRLIERGRYYGSEIILEAFSNSPPYWMTKSGCASGTSDGSNNLRDDCYDDFADYLTEVVKHFRDAWGITFRTLEPMNEPNSDWWKAGGRQEGCSFSYANQQRIIKEVGEKLKAKGLTGTTVSAADEASIDTALEGLQSYDATTLSYMSQLNVHSYFGSKRAQLRDLAKSKGLRIWQSESGPLSFNGDMADSCIMLSKRIVTDLKELQCVAWLDWQIIDGGNWGSIYVDDASQTFTLTEKFYMHANYSRFIRPGYTIIGANNEKTIAAISPDKKKLVIVATNDNKSSSANYTFNLTRFSGVNSTVEVYRTSPSLSLAKSIITASNKIVSDTLPPYSINTYVITLDGGVESVPAVGLQSYNYPNRYVRHADFDARIDENVTPLEDSQWRLVPGLANSSEGYVSIQSVNYPGYYLRHWDYDFRLDKNDGTTIFAEDATFKLVPGLADPSCVSFQSYNYPDRYIRHYGYLLKLERISTDLDRQDATFLIISDDSPGPITDSGYIMAYFKQAPGEYGLNLCYSTDGLHWRNINDGKPVLYAQMGTKGIRDPYIFRKQDGKFGIVATDMLGTNWGDTSQYIHYWESEDLINFTERLIKVHNKSNMHAWAPEVFYDENRKQYGIYWAGNTDYNRIYVNYTTDFDTVSDCQVFFDPGYDVIDAHIVSDKGMYYLFFKDERASGKAIKVARSSSLTPNSFTVFTPNFITSPNTEGPFVFKDNNSDSWYMYVDIYSNNGIFECWKTNDLNALSWTKVTGISVPPGVRHGSVVKVNRWELETAISRKVVTPPAPTPPPVLKGDVNADGVINSSDIMVLKRFLLRTITLTEEMLLNADTNGDGAVNSSDFTLLKRYILRSIDSFPV | failed
MNNPKPCEWKSNELSRGYIADYKAFNFVDGEGVRCSLYVSGCPFHCEGCYNKAAQSFKYGKPYTKELEDDILKDIGHESVQGLTLLGGEPFLNTATCLSVVKRIRATYGKTKDIWSWTGYTWDEMMQETTDKLELLSLIDVLVDGRFEQKLFDPNLAFRGSSNQRIIDVQKSLAADEVVLYELLEHHHHHH | not failed
MNNTNPLVSIIVPVYKVERYIHRSIDSLLRQTYNNLEIILVDDGSPDNCPFICDKYAMQDNRIRVIHKSNGGLSDARNAALNVMTGQYVTFVDSDDYIADNMIEKFIETVKLYQCNMVVAGMNIIDKNNQIYDYRRTLTSTLSTGIDITRKLLKDVFPFNFVCAKIFESSLFEEIRFPVGRHYEDTATTYKLTHKCERIYCIADCLYFYELEREGNITSELNTSKAIKSYIDGCLNSREQIFFCQKHKDFSDLLPVLTKRLQLWALLAIQSAISLGYKEYMFYYHQIRIYIRSLSYTQRMTHLQIALTFPIIYYSLYPLLSRLKKMYKN | failed
MNNTQKKLKVLFIGESWHIHMIHSKGYDSFTSSKYEEGATWLLECLRKGGVDIDYMPAHTVQIAFPESIDELNRYDVIVISDIGSNTFLLQNETFYQLKIKPNALESIKEYVKNGGGLLMIGGYLSFMGIEAKANYKNTVLAEVLPVIMLDGDDRVEKPEGICAEAVSPEHPVVNGFSDYPVFLGYNQAVARDDADVVLTINNDPLLVFGEYQQGKTACFMSDCSPHWGTQQFMSWPFYTDLWVNTLQFIARK | not failed
MNNTQQFSLSMRLFHWAMAALVISMLAAGLLMVRSLEPWQLSILTVHKAFGVVAAALVIARLMNRLFHQIPALPGDLSSLQTFVAKASHWLLYLLLFAMPISGYLMQYFAGRPIDVFGWFRLPSALTVNIENYAIFRELHGWLAIALMALVALHVAAALHHHFIRKDTVLKSML | failed
